Reference: paper PMC8100106, “Selection of a picomolar antibody that targets CXCR2-mediated neutrophil activation and alleviates EAE symptoms” (Nature Communications, 2021)
Values belong to the binder of their own block, whether it stands above or below them.

What was measured:
[1] = biological target: T1, pepN48, first 48 residues of the extracellular N-terminus of hCXCR2 (Homo sapiens, biotin on the N-terminus); test: SPR; biotinylated pepN48 loaded on streptavidin chip (Series S Sensor Chip SA), antibody flowed over, Biacore T200, HBS-EP+ buffer pH 7.4; conditions: both partners purified
T1 construct: human CXC chemokine receptor 2 (CXCR2), first 48 residues; also called CXCR2 N-terminal peptide; source: synthetic peptide (Chinese Peptide)
T1 chain: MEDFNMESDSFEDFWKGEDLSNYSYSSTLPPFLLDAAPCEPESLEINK

[2] = biological target: T2, pepN48, peptide of the first 48 residues of the extracellular N-terminus of hCXCR2 (Homo sapiens, biotin labeled on its N-terminus); test: SPR; biotinylated pepN48 loaded on a streptavidin Series S Sensor Chip SA; antibody flowed; Biacore T200; HBS-EP+ buffer pH 7.4; conditions: both partners purified
T2 construct: human CXC chemokine receptor 2 (CXCR2), first 48 residues; a blank before the last K in the print was removed; also called CXCR2 N-terminal peptide; source: synthetic peptide (Chinese Peptide, Hangzhou)
T2 chain: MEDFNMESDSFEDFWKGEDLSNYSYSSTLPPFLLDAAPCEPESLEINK

[3] = biological target: T3, macaque CXCR2 (mcCXCR2-mCherry) on U2OS cells (Macaca mulatta (macaque species not …, UniProt A0A5F7ZQV3)); test: flow cytometry on cells; U2OS cells transiently overexpressing receptor-mCherry; 2 μg mL^−1 antibody in FACS buffer (0.5% BSA in PBS pH 7.4, 2 mM EDTA), 4 °C, 15 min; Alexa Fluor 488 anti-human IgG; conditions: one partner purified
T3 construct: macaque CXCR2; also called macaque monkey CXCR2; source: U2OS, transiently overexpressed, on cells
T3 sequence (Q28519 whole entry): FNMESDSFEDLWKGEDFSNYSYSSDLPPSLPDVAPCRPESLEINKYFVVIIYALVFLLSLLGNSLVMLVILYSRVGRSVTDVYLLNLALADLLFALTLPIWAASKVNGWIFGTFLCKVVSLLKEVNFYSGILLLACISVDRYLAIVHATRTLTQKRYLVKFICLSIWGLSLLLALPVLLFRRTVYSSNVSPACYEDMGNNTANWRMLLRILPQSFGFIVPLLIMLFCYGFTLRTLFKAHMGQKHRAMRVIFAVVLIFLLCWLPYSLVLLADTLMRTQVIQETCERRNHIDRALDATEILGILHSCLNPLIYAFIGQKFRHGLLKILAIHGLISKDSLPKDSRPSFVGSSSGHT

[4] = biological target: T4, human CXCR2 (hCXCR2)-mCherry fusion protein on U2OS cells (human, UniProt P25025); test: immunostaining of cells or tissue; U2OS cells overexpressing receptor-mCherry, fixed with 4% paraformaldehyde; 2 μg mL^−1 antibody at 4 °C overnight; Alexa Fluor 488 anti-human IgG; confocal microscopy; conditions: one partner purified
T4 construct: human CXC chemokine receptor 2 (CXCR2); Also used here as the target of the functional rows, whose cells (Tango CXCR2-bla U2OS; CHO with hCXCR2 and Gα16; U2OS overexpressing hCXCR2) carry other hCXCR2 constructs; also called CXC chemokine receptor 2; source: U2OS, transiently overexpressed, on cells

[5] = biological target: T4, human CXCR2 (hCXCR2)-mCherry fusion …; test: flow cytometry on cells; cellular supernatants with scFv-Fc on U2OS cells with membrane-bound hCXCR2-mCherry; conditions: partners not purified
[6] = biological target: T5, pepN9-19, 9-19 amino acid peptide of hCXCR2 (human); test: crystal structure; Fab mixed with pepN9-19 at a molar ratio of 1:3; hanging drop vapor diffusion, 18 °C; conditions: both partners purified
T5 construct: human CXCR2 residues 9-19; source: synthetic peptide (Sangon Biotech) for crystallography
T5 chain: DSFEDFWKGED

[7] = biological target: T4, human CXCR2 (hCXCR2)-mCherry fusion …; test: cell-based or functional assay

Kd [2]: 0.78 nM
binding result [3]: binds
binding result [4]: binds
B2: abN48-IgG1 (antibody, V domains shown)
VH: QVQLVQSGAEVKKPGSSVKVSCKASGGTLSSYAISWVRQAPGQGPEWMGWINPNSGGTNYAQKFQGRVTMTRDTSISTAYMELSRLRPDDTAVYYCASGYCSSTSCYDYWGQGTLVTVSS
VL: QAVLTQPSSLSASPGASVSLTCTLRSGINVGAYRIYWYQQKPGSPPQFLLRYKSDSDKQQGSGVPSRFSGSRDASANAGILLISGLRSEDEADYYCAIWHSSAWVFGGGTQLTVL
notes: VH of abN48; complete constant domains of human IgG1 heavy chain; whole light chain of abN48 (VL and CL); Full-length IgG1; source: HEK293F, co-transfected heavy and light chain plasmids, purified (HiTrap Protein A)

binding result [5]: binds
Kd [2]: 2.6 nM
B3: H8 (abN48) scFv antibody (scFv, V domains shown)
VH: QVQLVQSGAEVKKPGSSVKVSCKASGGTLSSYAISWVRQAPGQGPEWMGWINPNSGGTNYAQKFQGRVTMTRDTSISTAYMELSRLRPDDTAVYYCASGYCSSTSCYDYWGQGTLVTVSS
VL: QAVLTQPSSLSASPGASVSLTCTLRSGINVGAYRIYWYQQKPGSPPQFLLRYKSDSDKQQGSGVPSRFSGSRDASANAGILLISGLRSEDEADYYCAIWHSSAWVFGGGTQLTVL
notes: VH and VL as in the abN48 Fab of PDB 6KVF; Expressed as scFv-Fc with the entire Fc domain of human IgG1 (pFuse, InvivoGen pfuse-hg1fc2); also called scFv-Fc; source: HEK293F, transfected (pFuse vector); in cellular supernatant, and purified (HiTrap Protein A)

binding result [6]: binds
B4: abN48 Fab (Fab, V domains shown)
VH: QVQLVQSGAEVKKPGSSVKVSCKASGGTLSSYAISWVRQAPGQGPEWMGWINPNSGGTNYAQKFQGRVTMTRDTSISTAYMELSRLRPDDTAVYYCASGYCSSTSCYDYWGQGTLVTVSS
VL: QAVLTQPSSLSASPGASVSLTCTLRSGINVGAYRIYWYQQKPGSPPQFLLRYKSDSDKQQGSGVPSRFSGSRDASANAGILLISGLRSEDEADYYCAIWHSSAWVFGGGTQLTVL
notes: Fab heavy chain of abN48; light chain of abN48; as the light chain of m2; source: Fab made following a similar protocol as for abN48-2 Fab (papain cleavage of the IgG1, purified)

binding result [6]: binds
B6: abN48-2 Fab (Fab, V domains shown)
VH: QVQLVQSGAEVKKPGSSVKVSCKASGGTLSSYAISWVRQAPGQGPEWMGWINPNSGGTNYAQKFQGRVTMTRDTSISTAYMELSRLRPDDTAVYYCASGYCSRTRCYDYWGQGTLVTVSS
VL: QAVLTQPSSLSASPGASVSLTCTLRSGINVGAYRIYWYQQKPGSPPQFLLRYKSDSDKQQGSGVPSRFSGSRDASANAGILLISGLRSEDEADYYCAIWHSSAWVFGGGTQLTVL
notes: Fab heavy chain of abN48-2; VH equals that of m2 (PDB 6KVF) with Ser99 to Arg99 and Ser100A to Arg100A (Kabat numbering); lambda light chain; as the light chain of m3; source: papain cleavage of abN48-2-IgG1, purified (HiTrap lambda HP, Superdex200 increase)

Continued, binder first:

B1: abN48-IgG1 (antibody, V domains shown)
VH: QVQLVQSGAEVKKPGSSVKVSCKASGGTLSSYAISWVRQAPGQGPEWMGWINPNSGGTNYAQKFQGRVTMTRDTSISTAYMELSRLRPDDTAVYYCASGYCSSTSCYDYWGQGTLVTVSS
VL: QAVLTQPSSLSASPGASVSLTCTLRSGINVGAYRIYWYQQKPGSPPQFLLRYKSDSDKQQGSGVPSRFSGSRDASANAGILLISGLRSEDEADYYCAIWHSSAWVFGGGTQLTVL
notes: VH of abN48 (from the scFv H8); complete constant domains of the IgG1 heavy chain; VL of abN48 on a complete light chain constant domain (lambda type is said of abN48-2-IgG1); IgG1; made from the scFv abN48 (H8); source: HEK293F, co-transfected heavy and light chain plasmids, purified (Protein A)
koff [1]: 0.00035 s⁻¹
kon [1]: 350000 M⁻¹ s⁻¹

B5: abN48-2-IgG1 (antibody, V domains shown)
VH: QVQLVQSGAEVKKPGSSVKVSCKASGGTLSSYAISWVRQAPGQGPEWMGWINPNSGGTNYAQKFQGRVTMTRDTSISTAYMELSRLRPDDTAVYYCASGYCSRTRCYDYWGQGTLVTVSS
VL: QAVLTQPSSLSASPGASVSLTCTLRSGINVGAYRIYWYQQKPGSPPQFLLRYKSDSDKQQGSGVPSRFSGSRDASANAGILLISGLRSEDEADYYCAIWHSSAWVFGGGTQLTVL
notes: VH as the heavy chain of Dm1 with two changes in H-CDR3 (Kabat numbering); complete constant domains of the IgG1 heavy chain; as the light chain of Dm1 (lambda type); IgG1, lambda; also called H8-2
koff [1]: 1.7e-05 s⁻¹
kon [1]: 940000 M⁻¹ s⁻¹

B7: abN48-2-IgG1 (antibody, V domains shown)
VH: QVQLVQSGAEVKKPGSSVKVSCKASGGTLSSYAISWVRQAPGQGPEWMGWINPNSGGTNYAQKFQGRVTMTRDTSISTAYMELSRLRPDDTAVYYCASGYCSRTRCYDYWGQGTLVTVSS
VL: QAVLTQPSSLSASPGASVSLTCTLRSGINVGAYRIYWYQQKPGSPPQFLLRYKSDSDKQQGSGVPSRFSGSRDASANAGILLISGLRSEDEADYYCAIWHSSAWVFGGGTQLTVL
notes: VH of abN48-2; equals the VH of m2 (PDB 6KVF) with Ser99 to Arg99 and Ser100A to Arg100A in H-CDR3 (Kabat numbering); complete constant domains of human IgG1 heavy chain; whole lambda light chain; as the light chain of m2; Full-length IgG1, lambda type; also called ab48-2-IgG1; AbN4-2-IgG1; source: HEK293T (results) or HEK293F (methods), transfected, purified (HiTrap Protein A)
partial agonist effect on Ca^2+ influx at high concentration (10–1000 nM), FLIPR, apparent EC50 [7]: 310 nM
Kd [2]: 0.0072 nM
binding result [3]: binds
